± gives the uncertainty stated by the source.
Experiment: protein stability index of a GFP-peptide fusion (yeast GPS) (PSI 1-4); higher = more stable; sorted into four equal gates, so the index is relative within each strain
Method in brief: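 The protein stability index of a peptide was calculated by multiplying its read frequency in each gate by that gate's number and adding the products. The peptides were tiled 17-residue stretches of yeast proteins, fused downstream of GFP on a Cherry-expressing plasmid and carried in yeast as a pooled library. Mid-log cultures in leucine-free medium were sorted into four equal gates by GFP/Cherry ratio, and each gate's plasmids were PCR-amplified and Illumina-sequenced.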

Sequence | protein stability index (doa10∆) | protein stability index (pdr5∆) | protein stability index (san1∆) | protein stability index (ubr1∆)
NTSSKRQKKKPTSAQKS [IRR1] | 2.71 ± 0.084 | 2.59 ± 0.08 | 2.5 ± 0.061 | 2.87 ± 0.07
NTTTRVIPQVEVGNRKH [SNF5] | 2.21 ± 0.2 | 2.46 ± 0.095 | 2.35 ± 0.17 | 2.62 ± 0.094
NVANVSGSTEKAFKICE [SIR3] | 2.96 ± 0.054 | 2.91 ± 0.048 | 3.18 ± 0.043 | 3.11 ± 0.058
NVAVDIINFGEIEQNTE [RPN10] | 3.23 ± 0.092 | 3.39 ± 0.075 | 3.27 ± 0.059 | 3.14 ± 0.066
NVDNQTSDLVKSLGLKL [RPS17A] | 3.2 ± 0.087 | 3.29 ± 0.084 | 3.35 ± 0.066 | 3.06 ± 0.075
NVFARLSRLLSLWEVFQ [RPC82] | 1.78 ± 0.16 | 2.06 ± 0.13 | 2.79 ± 0.14 | 2.38 ± 0.067
NVFGQDNEDSDNLFGET [SWI3] | 3.37 ± 0.13 | 3.7 ± 0.13 | 3.23 ± 0.12 | 3.5 ± 0.094
NVGELIEKNVMESIGSD [RRP4] | 2.54 ± 0.059 | 3.03 ± 0.075 | 2.62 ± 0.098 | 2.39 ± 0.065
NVIDTQRKNGVTNSPLF [ECM29] | 3 ± 0.25 | 3.19 ± 0.091 | 3.09 ± 0.21 | 3.12 ± 0.11
NVIRSLEQEYRLILLLN [RMP1] | 1.44 ± 0.036 | 1.19 ± 0.022 | 1.29 ± 0.071 | 1.35 ± 0.038
NVKFLRIFISNVSENQP [SNF12] | 1.53 ± 0.095 | 1.63 ± 0.075 | 2.02 ± 0.075 | 1.95 ± 0.069
NVKNDVSFNDSQSMVTN [YIL149C/MLP2] | 3.1 ± 0.054 | 3.37 ± 0.081 | 3.07 ± 0.067 | 3.3 ± 0.04
NVKYRAVVFKPFKGEVV [RPB7] | 2.96 ± 0.12 | 2.85 ± 0.047 | 2.43 ± 0.075 | 2.86 ± 0.075
NVLCVNIKSNDFSIRKT [ECM29] | 2.52 ± 0.068 | 2.66 ± 0.099 | 2.58 ± 0.1 | 2.6 ± 0.071
NVLNQINQIFSPEEQRS [GAL11] | 2.83 ± 0.045 | 2.93 ± 0.035 | 2.91 ± 0.039 | 2.81 ± 0.038
NVMTPREQYETQVALNE [UBP6] | 3.17 ± 0.087 | 3.22 ± 0.16 | 2.83 ± 0.13 | 3.05 ± 0.091
NVNNRFDNFLTEEELQA [BRN1] | 3.07 ± 0.078 | 2.63 ± 0.079 | 3 ± 0.056 | 2.63 ± 0.054
NVQTQYREAPVIYRGPE [RET1] | 2.53 ± 0.095 | 2.97 ± 0.069 | 3.36 ± 0.042 | 3.14 ± 0.051
NVSLIKIEGVATPQDAQ [RPL33A] | 2.74 ± 0.082 | 2.52 ± 0.061 | 2.38 ± 0.11 | 2.37 ± 0.059
NVTGGKAANFIQNQSPQ [SWI1] | 2.77 ± 0.062 | 2.79 ± 0.063 | 2.87 ± 0.051 | 2.99 ± 0.047

Sequence | protein stability index (doa10∆) | protein stability index (pdr5∆) | protein stability index (san1∆) | protein stability index (ubr1∆)
NVTKSSVGVIINKMVGN [RPL21A] | 2.17 ± 0.099 | 2.98 ± 0.11 | 2.46 ± 0.19 | 2.91 ± 0.13
NVTQNEQQWITRAQYLA [SRP68] | 1.42 ± 0.08 | 1.54 ± 0.072 | 1.19 ± 0.13 | 1.28 ± 0.064
NWRSFNAKIIDAEVAQF [SRP68] | 2.53 ± 0.071 | 2.56 ± 0.048 | 2.01 ± 0.073 | 2.43 ± 0.098
NYELEKIADNISKDENE [YDL116W/NUP84] | 3.03 ± 0.09 | 3.04 ± 0.077 | 2.98 ± 0.048 | 3.14 ± 0.055
NYTGWKAISVGANTSAA [PRE9] | 1.23 ± 0.079 | 1.36 ± 0.076 | 1.24 ± 0.2 | 1.17 ± 0.062
PAAESKIFTPNLLQISA [SNF5] | 1.72 ± 0.12 | 2.04 ± 0.11 | 2.09 ± 0.14 | 1.55 ± 0.099
PAEHPFISAARYKPKSH [RPC37] | 2.99 ± 0.1 | 3.04 ± 0.082 | 2.66 ± 0.064 | 3.13 ± 0.066
PANNHQLGLQTVIRGNS [SMX2] | 3.02 ± 0.077 | 3.19 ± 0.086 | 2.91 ± 0.074 | 2.85 ± 0.053
PASDDILDNINHNGSAL [ITC1] | 2.9 ± 0.1 | 3.21 ± 0.096 | 3.06 ± 0.095 | 3.29 ± 0.078
PASKQGYLITPPKHTEL [SSN2] | – | 3.31 ± 0.3 | 2.49 ± 0.17 | –
PDENHDNTSHDEQDDDN [BRN1] | 3.11 ± 0.1 | 3.2 ± 0.095 | 3.05 ± 0.12 | 3.11 ± 0.1
PDENKTRVRLPSGAKKV [RPL2A] | 3.12 ± 0.075 | 2.96 ± 0.079 | 3.1 ± 0.037 | 3.08 ± 0.05
PDGLGEVGMKVQSGQIY [RET1] | 3.27 ± 0.14 | 3.15 ± 0.12 | 2.91 ± 0.094 | 3.21 ± 0.25
PDIVGHEFTLSFTYELK [BRR2] | 2 ± 0.038 | 2.06 ± 0.036 | 2.15 ± 0.05 | 2.21 ± 0.033
PDLPALEASYSKSYTPR [SMC4] | 2.28 ± 0.064 | 3.02 ± 0.088 | 2.75 ± 0.1 | 2.6 ± 0.071
PEENATEGPSDKKLNLN [SNF12] | – | 3.59 ± 0.17 | 3.27 ± 0.099 | 3.29 ± 0.1
PELFESLGIAQPKGVIL [RPT6] | 2.56 ± 0.052 | 2.82 ± 0.069 | 2.46 ± 0.092 | 2.54 ± 0.061
PEQGEEPMKQLNATKIS [YAR002W/NUP60] | 3.15 ± 0.12 | 2.2 ± 0.09 | 2.5 ± 0.14 | 2.48 ± 0.11
PEQVYSLLLTNVIITGS [ARP7] | 1.36 ± 0.06 | 1.39 ± 0.047 | 1.17 ± 0.11 | 1.23 ± 0.046
PEQYSDILLNERVWNIC [AAR2] | 3.38 ± 0.12 | 3.23 ± 0.22 | 2.68 ± 0.18 | 2.99 ± 0.18
